Results taken from patent publication US20120114557A1.

Tests used:
[1] = molecular target: rat collagen type I (rat) (UniProt P02454); test: dried collagen assay, chelate conjugate
[2] = molecular target: human collagen type I (human) (UniProt P02452); test: dried collagen assay, chelate conjugate
Chain of human collagen type I (human) (P02452 162-1218 limits assumed, chain 1 of 2): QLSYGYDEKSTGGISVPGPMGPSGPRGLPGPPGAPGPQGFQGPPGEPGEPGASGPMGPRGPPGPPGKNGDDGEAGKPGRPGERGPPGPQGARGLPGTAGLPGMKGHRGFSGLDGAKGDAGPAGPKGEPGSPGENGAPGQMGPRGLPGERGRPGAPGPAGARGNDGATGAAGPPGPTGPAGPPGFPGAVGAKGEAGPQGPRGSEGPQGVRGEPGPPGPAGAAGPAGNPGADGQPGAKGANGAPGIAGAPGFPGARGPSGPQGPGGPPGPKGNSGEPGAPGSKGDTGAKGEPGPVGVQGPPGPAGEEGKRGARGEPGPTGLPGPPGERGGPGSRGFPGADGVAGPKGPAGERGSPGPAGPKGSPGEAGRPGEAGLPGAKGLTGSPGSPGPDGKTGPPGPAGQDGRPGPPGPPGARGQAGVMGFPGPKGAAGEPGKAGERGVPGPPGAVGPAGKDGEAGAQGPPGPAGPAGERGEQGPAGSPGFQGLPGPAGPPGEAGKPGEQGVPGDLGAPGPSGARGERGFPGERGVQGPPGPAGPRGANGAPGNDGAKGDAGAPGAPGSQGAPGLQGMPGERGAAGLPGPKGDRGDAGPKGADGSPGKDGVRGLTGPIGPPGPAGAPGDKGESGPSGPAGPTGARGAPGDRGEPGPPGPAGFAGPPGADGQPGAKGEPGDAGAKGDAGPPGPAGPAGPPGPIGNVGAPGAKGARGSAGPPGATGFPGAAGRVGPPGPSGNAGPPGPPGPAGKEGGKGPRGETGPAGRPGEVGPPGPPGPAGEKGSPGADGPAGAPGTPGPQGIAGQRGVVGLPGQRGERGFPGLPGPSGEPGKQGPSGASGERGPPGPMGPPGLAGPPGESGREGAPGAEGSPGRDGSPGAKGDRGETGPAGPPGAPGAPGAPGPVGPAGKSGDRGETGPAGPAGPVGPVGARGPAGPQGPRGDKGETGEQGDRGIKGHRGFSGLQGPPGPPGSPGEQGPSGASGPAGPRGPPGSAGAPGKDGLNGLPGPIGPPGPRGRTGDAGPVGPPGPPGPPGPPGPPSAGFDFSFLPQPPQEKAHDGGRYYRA
Chain of human collagen type I (human) (P08123 80-1119 limits assumed, chain 2 of 2, further chain): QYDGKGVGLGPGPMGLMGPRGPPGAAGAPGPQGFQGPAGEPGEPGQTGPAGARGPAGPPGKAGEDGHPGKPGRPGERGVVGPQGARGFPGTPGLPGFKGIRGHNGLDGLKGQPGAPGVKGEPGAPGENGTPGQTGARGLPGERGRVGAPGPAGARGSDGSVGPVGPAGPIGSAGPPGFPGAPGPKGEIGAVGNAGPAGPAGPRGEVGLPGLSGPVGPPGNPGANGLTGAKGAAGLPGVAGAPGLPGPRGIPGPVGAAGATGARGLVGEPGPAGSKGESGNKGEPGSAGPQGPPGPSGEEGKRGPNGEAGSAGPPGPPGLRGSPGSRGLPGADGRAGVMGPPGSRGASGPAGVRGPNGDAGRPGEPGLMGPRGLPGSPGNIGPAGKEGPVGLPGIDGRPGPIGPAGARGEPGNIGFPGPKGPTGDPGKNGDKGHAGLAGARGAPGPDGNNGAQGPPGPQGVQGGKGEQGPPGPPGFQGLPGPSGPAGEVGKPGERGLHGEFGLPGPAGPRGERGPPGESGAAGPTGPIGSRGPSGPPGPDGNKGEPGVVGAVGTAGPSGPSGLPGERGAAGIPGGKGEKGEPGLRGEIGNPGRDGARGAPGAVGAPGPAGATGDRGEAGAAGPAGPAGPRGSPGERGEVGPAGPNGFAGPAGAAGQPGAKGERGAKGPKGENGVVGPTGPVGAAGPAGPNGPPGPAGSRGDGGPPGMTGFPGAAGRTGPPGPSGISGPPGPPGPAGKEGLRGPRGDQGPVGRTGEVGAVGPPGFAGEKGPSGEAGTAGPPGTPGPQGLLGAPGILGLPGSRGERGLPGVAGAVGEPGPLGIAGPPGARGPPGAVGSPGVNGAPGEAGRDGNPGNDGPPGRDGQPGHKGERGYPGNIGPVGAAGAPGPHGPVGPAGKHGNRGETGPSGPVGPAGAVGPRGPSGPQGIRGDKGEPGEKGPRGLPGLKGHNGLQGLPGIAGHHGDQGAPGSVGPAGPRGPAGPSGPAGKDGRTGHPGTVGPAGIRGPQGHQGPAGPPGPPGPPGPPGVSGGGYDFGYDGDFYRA

Chain of rat collagen type I (rat) (P02454 152-1207, chain 1 of 2): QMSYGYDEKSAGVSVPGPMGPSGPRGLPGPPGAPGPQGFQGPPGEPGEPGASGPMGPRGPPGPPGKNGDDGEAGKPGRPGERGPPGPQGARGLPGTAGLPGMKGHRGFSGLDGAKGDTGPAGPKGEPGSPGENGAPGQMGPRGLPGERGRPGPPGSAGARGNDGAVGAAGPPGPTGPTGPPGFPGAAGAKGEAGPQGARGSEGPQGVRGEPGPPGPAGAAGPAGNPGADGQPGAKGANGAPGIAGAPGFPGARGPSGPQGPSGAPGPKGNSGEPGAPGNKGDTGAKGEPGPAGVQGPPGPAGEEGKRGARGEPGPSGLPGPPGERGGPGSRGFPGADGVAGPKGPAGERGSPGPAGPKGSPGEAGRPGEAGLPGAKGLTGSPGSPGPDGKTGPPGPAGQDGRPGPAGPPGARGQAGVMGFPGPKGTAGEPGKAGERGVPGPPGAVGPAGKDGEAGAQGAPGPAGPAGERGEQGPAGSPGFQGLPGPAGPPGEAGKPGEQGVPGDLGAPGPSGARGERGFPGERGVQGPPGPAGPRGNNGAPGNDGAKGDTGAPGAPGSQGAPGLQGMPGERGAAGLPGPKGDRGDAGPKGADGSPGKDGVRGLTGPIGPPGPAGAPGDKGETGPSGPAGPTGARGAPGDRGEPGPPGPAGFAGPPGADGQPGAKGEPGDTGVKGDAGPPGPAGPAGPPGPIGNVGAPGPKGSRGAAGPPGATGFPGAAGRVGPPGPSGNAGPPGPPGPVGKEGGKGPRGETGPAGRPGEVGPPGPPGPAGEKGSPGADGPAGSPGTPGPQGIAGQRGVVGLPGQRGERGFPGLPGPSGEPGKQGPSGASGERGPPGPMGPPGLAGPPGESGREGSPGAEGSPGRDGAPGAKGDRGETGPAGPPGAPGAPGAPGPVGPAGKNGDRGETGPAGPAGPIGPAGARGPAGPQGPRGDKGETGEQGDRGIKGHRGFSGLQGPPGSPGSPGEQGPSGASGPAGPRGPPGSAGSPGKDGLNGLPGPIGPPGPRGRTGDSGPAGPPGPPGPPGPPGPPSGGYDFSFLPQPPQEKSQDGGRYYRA
Chain of rat collagen type I (rat) (P02466 86-1125, chain 2 of 2, further chain): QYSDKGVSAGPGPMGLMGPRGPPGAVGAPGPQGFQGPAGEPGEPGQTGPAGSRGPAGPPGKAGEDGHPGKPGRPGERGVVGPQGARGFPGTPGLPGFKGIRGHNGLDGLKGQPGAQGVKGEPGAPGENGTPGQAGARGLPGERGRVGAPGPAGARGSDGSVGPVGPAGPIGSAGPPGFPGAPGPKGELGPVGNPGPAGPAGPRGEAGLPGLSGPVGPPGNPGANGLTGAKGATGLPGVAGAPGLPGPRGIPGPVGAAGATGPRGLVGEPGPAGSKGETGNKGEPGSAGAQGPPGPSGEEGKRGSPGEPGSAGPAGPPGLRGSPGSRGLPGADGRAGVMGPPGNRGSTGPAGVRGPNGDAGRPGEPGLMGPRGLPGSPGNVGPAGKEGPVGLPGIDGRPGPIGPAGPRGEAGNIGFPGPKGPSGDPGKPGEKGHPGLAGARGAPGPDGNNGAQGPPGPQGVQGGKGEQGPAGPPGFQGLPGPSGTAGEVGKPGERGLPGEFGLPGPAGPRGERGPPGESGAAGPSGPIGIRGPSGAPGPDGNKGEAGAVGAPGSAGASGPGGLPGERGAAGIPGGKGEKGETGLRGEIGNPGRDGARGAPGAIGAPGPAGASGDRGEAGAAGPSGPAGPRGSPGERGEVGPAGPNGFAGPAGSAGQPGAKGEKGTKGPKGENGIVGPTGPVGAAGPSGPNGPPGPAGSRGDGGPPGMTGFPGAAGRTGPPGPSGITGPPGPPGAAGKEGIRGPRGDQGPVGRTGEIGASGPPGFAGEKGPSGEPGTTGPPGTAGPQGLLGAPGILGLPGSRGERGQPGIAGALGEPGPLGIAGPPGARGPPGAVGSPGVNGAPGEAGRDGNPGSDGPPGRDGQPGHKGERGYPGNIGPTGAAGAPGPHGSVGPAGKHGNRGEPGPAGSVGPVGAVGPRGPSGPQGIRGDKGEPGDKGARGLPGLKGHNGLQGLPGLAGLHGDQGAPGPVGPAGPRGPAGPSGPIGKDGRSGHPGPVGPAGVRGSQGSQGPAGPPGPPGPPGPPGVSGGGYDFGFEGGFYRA

Q: What does the source list for “Glu-DTPA-Gd-PEG(20)-G-Q-W-T-C-S-G-D-E-Y-T-W-H-C-N-Y-e (peptide)”?
A: % Binding Collagen I, Rat [1]: 5%; % Binding Collagen I, Human [2]: 28%
